By Kd is commonly meant the equilibrium constant for the complex coming apart. Lower therefore signals tighter binding.

The series concerns His:paALKBH5-like (Gypsy_Pa_2799 ORF2) (Phalaenopsis aphrodite). Kind of series: EMSA. The note with it: EMSA: 10 mM Tris-HCl pH 8.0, 100 mM NaCl, 50% glycerol, 1 U RiboLock, 30 min at 4 C; Northwestern: 10 mM Tris-HCl pH 7.5, 1 mM EDTA, 0.1 M NaCl, 0.05% Triton …. (A gel shift assay detects complexes by their altered migration in electrophoresis.)

AMV RNA 3 5'UTR transcript showed an equilibrium dissociation constant (Kd) of 0.21 µM.

Values taken from paper PMC9289625.
